Each block holds one binder with its values, some of them ahead of it.
Key:
[1] = target: T1, AnkG_MBD 'site-2' mutant (Ile277Gln, Leu310Gln) (rat, UniProt O70511-1 38-855, Ile277Gln | Leu310Gln); experiment: ITC
T1 sequence: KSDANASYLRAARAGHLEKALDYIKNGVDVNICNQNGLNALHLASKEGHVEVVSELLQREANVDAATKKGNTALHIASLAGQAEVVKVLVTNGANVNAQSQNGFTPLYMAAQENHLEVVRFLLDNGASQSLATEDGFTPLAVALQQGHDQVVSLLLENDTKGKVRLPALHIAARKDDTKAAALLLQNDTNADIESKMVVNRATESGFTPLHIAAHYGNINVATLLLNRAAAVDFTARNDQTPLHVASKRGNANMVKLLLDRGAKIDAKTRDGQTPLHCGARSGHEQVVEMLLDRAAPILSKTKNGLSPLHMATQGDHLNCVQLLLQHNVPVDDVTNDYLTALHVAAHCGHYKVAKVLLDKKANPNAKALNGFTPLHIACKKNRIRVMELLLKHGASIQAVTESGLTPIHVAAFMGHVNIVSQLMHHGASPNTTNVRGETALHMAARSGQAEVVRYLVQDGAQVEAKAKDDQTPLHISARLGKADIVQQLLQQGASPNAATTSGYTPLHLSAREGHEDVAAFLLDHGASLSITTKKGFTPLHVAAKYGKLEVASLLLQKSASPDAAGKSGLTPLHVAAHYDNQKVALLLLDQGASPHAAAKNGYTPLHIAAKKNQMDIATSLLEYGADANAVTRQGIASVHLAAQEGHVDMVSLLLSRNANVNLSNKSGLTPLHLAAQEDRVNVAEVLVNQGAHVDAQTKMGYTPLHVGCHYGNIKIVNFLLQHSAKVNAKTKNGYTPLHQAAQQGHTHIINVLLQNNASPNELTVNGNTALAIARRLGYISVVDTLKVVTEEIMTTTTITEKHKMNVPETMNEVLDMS

[2] = target: T2, AnkG_MBD 'site-1' mutant (Phe141Gln, Phe164Gln) (rat); experiment: ITC
T2 chain: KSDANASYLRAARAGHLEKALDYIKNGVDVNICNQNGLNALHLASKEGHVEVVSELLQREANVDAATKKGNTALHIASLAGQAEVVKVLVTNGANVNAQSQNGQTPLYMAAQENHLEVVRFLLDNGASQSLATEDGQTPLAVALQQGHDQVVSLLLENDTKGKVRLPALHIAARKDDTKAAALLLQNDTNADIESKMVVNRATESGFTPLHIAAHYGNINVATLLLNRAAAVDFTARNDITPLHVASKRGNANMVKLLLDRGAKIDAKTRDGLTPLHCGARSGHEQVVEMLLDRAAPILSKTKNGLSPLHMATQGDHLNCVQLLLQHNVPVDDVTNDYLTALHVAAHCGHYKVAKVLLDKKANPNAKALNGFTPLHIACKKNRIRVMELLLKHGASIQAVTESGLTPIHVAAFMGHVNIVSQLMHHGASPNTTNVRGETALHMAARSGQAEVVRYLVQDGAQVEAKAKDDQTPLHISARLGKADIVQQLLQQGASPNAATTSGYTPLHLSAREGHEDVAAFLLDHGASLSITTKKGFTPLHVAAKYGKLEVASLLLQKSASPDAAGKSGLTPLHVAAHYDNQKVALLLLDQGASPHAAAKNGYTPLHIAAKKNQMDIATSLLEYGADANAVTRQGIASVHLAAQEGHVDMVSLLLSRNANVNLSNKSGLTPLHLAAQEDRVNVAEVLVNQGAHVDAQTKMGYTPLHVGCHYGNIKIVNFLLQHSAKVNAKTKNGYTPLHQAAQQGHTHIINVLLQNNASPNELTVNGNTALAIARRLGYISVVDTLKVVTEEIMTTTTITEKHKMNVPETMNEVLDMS

[3] = target: T3, AnkG 38–855 (AnkG MBD-AI-c protein; MBD + partial AI-c) (rat, UniProt O70511-1 38-855); experiment: ITC
T3 chain: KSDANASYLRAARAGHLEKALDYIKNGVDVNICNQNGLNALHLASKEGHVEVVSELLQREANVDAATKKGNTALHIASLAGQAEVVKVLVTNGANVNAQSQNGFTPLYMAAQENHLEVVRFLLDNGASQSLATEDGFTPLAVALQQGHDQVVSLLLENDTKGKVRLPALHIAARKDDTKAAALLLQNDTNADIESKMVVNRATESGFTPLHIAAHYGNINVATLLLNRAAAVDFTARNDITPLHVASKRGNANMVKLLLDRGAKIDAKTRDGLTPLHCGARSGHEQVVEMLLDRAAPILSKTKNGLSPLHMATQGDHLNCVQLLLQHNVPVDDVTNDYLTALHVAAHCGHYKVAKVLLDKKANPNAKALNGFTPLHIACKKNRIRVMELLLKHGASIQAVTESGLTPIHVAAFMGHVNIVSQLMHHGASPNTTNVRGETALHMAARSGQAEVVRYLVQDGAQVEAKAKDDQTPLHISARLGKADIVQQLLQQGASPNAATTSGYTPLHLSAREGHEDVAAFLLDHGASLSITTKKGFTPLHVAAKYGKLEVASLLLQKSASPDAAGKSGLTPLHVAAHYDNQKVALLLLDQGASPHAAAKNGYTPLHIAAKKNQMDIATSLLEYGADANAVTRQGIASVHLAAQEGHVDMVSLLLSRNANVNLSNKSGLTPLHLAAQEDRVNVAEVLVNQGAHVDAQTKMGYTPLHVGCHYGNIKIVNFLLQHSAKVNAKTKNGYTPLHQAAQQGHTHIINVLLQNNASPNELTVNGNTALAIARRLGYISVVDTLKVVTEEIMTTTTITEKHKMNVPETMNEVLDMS

[4] = target: T3, AnkG 38–855 (AnkG MBD-AI-c protein; MBD …); experiment: ITC; two sites
[5] = target: T4, AnkB 28–847 (MBD + partial AI-c) (human, UniProt Q01484-2 28-847); experiment: ITC
T4 chain: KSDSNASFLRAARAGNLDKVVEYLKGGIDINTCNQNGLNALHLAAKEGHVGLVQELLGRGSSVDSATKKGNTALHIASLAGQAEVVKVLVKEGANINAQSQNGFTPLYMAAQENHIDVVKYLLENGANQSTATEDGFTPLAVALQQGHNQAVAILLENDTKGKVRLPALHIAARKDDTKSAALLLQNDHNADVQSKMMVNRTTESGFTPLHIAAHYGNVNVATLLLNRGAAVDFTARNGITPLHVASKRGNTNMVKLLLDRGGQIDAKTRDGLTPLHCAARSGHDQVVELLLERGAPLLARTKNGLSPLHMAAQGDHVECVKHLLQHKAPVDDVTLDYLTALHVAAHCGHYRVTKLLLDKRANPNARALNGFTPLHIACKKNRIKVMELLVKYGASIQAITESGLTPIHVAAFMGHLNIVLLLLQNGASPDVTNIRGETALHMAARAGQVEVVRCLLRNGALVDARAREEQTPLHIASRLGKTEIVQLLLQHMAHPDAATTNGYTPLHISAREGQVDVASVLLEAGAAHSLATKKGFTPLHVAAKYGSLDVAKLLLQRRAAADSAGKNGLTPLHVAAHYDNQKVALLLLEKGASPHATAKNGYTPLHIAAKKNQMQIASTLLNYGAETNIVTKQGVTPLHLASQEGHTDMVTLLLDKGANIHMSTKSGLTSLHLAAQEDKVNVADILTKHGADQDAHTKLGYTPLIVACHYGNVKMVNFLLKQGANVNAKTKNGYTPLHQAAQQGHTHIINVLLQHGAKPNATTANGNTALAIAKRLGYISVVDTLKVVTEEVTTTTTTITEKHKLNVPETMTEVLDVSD

[6] = target: T5, AnkB MBD 'site-2' mutant (Ile267Gln, Leu300Gln) (human, UniProt Q01484-2 28-847, Ile267Gln | Leu300Gln); experiment: ITC
T5 sequence: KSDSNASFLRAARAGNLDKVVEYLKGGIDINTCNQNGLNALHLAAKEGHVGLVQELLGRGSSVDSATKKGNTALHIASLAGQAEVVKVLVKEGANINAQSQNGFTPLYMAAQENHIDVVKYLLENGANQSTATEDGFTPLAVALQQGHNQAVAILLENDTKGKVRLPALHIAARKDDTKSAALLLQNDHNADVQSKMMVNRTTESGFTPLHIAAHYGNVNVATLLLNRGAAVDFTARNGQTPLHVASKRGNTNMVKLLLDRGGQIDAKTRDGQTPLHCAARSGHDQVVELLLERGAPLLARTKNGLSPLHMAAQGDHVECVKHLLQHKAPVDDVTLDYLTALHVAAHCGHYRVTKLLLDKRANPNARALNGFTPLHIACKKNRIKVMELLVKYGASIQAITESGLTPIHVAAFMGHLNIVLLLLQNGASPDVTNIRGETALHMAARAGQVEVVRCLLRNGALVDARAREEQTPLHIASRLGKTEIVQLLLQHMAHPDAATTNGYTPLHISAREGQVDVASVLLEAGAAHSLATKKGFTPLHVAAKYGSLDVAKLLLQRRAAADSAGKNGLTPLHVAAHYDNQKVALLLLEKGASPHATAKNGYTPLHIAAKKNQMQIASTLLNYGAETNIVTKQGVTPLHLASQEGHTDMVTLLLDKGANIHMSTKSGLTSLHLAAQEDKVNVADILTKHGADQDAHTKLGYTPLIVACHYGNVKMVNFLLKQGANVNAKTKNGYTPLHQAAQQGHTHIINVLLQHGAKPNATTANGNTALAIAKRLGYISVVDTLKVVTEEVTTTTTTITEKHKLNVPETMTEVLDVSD

Kd [1]: 3.9 µM | Kd [2]: 2.6 µM | Kd [3]: 1.6 µM
B1: AnkG linker ΔAI-c (aa 861–920) (domain or fragment)
chain: KASAPEKLSDGEYISDGEEGEDAITGDTDKYLGPQDLKELGDDSLPAEGYVGFSLGARSA

Kd [4]: ~3 µM
B2: AnkG long linker (aa 837–920; AI-c + AI-b) (domain or fragment)
chain: TEKHKMNVPETMNEVLDMSDDEVGKASAPEKLSDGEYISDGEEGEDAITGDTDKYLGPQDLKELGDDSLPAEGYVGFSLGARSA

Kd [5]: 3.7 µM | Kd [6]: 8.5 µM
B3: AnkB_AI-b (aa 865–896) (domain or fragment)
chain: EDLKELGDDSLPSSQFLDGMNYLRYSLEGGRS
